In PMC8554105:

Assays:
[1] = target: T. brucei coronin coiled-coil domain (T. brucei) (UniProt Q57W63); assay: SAXS
[2] = target: T. brucei coronin coiled-coil domain (T. brucei) (UniProt Q57W63); assay: crystal structure
[3] = target: T. brucei coronin coiled-coil domain (T. brucei) (UniProt Q57W63); assay: cross-linking
[4] = target: T. brucei coronin coiled-coil domain (T. brucei) (UniProt Q57W63); assay: SEC
[5] = target: T. brucei coronin coiled-coil domain V493I–V507M (T. brucei) (UniProt Q57W63); assay: crystal structure
[6] = target: T. brucei coronin coiled-coil domain V507M (T. brucei) (UniProt Q57W63); assay: crystal structure

Substance: T. brucei coronin coiled-coil domain (from UniProt Q57W63 477-523) (domain or fragment)
- stoichiometry N [1]: 4
- stoichiometry N [2]: 4
- stoichiometry N [3]: 4
- stoichiometry N [4]: 4

Substance: T. brucei coronin coiled-coil domain V493I–V507M (from UniProt Q57W63 477-523) (domain or fragment)
- stoichiometry N [5]: 4

Substance: T. brucei coronin coiled-coil domain V507M (from UniProt Q57W63 477-523) (domain or fragment)
- stoichiometry N [6]: 4
